Source: US20180355060A1 (published 2018)

Key:
[1] = target: T1, mouse TG2 (mouse, UniProt P21981 1-686); assay: western blot and ELISA
T1 sequence: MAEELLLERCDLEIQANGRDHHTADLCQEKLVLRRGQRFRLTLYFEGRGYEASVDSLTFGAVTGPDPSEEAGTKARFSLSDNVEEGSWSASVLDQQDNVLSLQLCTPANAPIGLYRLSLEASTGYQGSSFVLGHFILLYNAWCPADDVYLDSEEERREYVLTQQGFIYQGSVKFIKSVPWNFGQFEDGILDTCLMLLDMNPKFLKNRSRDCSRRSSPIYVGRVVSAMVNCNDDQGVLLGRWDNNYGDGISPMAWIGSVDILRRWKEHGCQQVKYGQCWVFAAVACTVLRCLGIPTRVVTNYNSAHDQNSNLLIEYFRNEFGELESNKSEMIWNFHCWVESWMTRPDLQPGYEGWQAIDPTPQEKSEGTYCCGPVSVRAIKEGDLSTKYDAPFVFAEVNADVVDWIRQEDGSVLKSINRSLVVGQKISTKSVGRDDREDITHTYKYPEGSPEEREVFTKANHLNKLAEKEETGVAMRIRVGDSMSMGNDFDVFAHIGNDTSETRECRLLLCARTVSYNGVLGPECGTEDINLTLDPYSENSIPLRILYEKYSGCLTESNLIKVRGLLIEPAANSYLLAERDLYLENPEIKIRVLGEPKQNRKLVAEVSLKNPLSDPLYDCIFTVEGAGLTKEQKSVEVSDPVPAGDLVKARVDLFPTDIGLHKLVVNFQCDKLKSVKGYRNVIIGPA

[2] = target: T2, rat TG2 (rat, UniProt Q9WVJ6 1-686); assay: western blot and ELISA
T2 sequence: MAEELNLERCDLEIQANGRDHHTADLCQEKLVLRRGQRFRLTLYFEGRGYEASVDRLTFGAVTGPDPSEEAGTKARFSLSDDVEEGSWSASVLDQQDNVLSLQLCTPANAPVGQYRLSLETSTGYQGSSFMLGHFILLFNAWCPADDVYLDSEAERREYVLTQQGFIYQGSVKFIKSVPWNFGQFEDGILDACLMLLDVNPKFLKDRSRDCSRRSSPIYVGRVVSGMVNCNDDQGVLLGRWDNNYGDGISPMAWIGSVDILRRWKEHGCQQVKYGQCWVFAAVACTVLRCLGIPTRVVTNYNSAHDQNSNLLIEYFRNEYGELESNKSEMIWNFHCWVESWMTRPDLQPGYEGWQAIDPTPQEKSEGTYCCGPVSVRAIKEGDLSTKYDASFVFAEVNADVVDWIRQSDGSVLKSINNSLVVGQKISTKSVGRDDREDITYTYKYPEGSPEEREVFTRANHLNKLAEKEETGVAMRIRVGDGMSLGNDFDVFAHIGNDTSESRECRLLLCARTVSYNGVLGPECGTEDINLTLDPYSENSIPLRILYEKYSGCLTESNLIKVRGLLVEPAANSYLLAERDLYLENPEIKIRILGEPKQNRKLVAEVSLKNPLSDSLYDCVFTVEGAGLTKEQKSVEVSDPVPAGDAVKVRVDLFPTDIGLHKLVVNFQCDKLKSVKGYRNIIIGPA

[3] = target: T3, human transglutaminase type 2 (TG2) (human, UniProt P21980 1-687); assay: cell-based or functional assay
T3 sequence: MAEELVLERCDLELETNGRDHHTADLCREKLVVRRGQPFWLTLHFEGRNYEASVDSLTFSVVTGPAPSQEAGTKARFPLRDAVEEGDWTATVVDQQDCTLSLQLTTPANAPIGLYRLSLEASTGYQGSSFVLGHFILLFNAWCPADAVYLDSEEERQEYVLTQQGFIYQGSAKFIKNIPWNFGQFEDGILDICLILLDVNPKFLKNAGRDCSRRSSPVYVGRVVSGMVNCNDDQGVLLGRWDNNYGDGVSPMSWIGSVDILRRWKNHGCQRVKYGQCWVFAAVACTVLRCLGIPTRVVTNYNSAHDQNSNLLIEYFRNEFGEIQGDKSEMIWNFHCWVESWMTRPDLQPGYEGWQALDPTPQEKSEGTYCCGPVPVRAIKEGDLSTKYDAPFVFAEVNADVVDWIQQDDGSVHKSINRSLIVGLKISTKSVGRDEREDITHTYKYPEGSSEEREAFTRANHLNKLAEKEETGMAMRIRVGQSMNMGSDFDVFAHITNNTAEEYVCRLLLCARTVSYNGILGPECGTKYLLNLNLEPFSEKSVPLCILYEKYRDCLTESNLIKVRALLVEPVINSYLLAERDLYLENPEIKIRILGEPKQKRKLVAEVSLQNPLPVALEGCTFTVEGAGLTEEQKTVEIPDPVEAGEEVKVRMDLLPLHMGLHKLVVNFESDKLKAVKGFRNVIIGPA

B1: AB1 murine monoclonal anti-TG2 antibody (antibody, V domains shown)
VH: EVQLVESGGGLVKPGGSLKLSCAASGFTLSSSAMSWVRQTPDRRLEWVATISVGGGKTYYPDSVKGRFTISRDNAKNTLYLQMNSLRSEDTAMYYCAKLISLYWGQGTTLTVSS
VL: DIKMTQSPSSMYASLGERVTITCKASQDINSYLTWFQQKPGKSPKTLIYRTNRLFDGVPSRFSGSGSGQDFFLTISSLEYEDMGIYYCLQYDDFPYTFGGGTKLEIK
notes: they differ only in the first residues; also called AB1 IgG; mAB003
binding result [1]: binds | binding result [2]: binds | IC50, 3H-putrescine incorporation TG activity assay [3]: 1.1e-05 mg/ml of IgG (amount required to inhibit 1 ng of TG2)
